We go through two molecules from patent US20160331662A1, “Compositions that Inhibit and Prevent the Formation of Dental Caries and Methods of Using the Same” (priority 2014, published 2016).

No end group written: not given here. FAM = fluorescein amidite

For experiment [1], the target named is A3VP1^SspB (S. gordonii DL1 SspB, residues 386-805) (Streptococcus gordonii DL1) (UniProt P16952).
The target in experiment [2] is C123^SspB (S. gordonii DL1 SspB, residues 913-1406) (Streptococcus gordonii DL1) (UniProt P16952).
Experiment [3] has as its target T1, A3VP1^AgI/II (Streptococcus mutans UA159), P23504.
T1 chain: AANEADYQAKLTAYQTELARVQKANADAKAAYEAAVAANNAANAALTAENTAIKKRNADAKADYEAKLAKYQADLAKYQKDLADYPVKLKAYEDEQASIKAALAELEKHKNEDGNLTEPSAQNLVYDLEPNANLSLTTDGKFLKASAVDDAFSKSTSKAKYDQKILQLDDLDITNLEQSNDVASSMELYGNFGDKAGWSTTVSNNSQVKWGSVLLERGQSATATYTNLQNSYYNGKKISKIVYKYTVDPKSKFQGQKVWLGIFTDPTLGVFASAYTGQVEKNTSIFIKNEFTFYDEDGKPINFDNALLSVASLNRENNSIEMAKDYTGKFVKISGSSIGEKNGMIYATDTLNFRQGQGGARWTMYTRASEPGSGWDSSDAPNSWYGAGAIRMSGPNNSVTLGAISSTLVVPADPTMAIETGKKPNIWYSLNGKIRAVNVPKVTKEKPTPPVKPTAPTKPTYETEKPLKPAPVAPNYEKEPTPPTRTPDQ

Experiment [4] addresses T2, C123^AgI/II (Streptococcus mutans UA159), P23504.
T2 chain: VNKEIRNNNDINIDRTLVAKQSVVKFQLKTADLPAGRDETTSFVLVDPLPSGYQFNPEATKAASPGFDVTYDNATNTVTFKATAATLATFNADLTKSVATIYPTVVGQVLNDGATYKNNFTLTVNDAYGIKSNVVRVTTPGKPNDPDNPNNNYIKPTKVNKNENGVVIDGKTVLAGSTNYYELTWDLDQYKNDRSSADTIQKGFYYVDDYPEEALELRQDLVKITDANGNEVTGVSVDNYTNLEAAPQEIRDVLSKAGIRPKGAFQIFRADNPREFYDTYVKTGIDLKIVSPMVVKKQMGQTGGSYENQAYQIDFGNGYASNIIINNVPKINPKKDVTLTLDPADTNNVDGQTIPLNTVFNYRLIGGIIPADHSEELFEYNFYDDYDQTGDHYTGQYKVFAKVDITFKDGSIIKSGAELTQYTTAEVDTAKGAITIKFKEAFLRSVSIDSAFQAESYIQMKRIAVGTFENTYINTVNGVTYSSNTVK

Experiment [5] addresses T3, FL^AgI/II (S. mutans UA159 Antigen I/II, full length recombinant construct) (Streptococcus mutans UA159), P23504.
T3 chain: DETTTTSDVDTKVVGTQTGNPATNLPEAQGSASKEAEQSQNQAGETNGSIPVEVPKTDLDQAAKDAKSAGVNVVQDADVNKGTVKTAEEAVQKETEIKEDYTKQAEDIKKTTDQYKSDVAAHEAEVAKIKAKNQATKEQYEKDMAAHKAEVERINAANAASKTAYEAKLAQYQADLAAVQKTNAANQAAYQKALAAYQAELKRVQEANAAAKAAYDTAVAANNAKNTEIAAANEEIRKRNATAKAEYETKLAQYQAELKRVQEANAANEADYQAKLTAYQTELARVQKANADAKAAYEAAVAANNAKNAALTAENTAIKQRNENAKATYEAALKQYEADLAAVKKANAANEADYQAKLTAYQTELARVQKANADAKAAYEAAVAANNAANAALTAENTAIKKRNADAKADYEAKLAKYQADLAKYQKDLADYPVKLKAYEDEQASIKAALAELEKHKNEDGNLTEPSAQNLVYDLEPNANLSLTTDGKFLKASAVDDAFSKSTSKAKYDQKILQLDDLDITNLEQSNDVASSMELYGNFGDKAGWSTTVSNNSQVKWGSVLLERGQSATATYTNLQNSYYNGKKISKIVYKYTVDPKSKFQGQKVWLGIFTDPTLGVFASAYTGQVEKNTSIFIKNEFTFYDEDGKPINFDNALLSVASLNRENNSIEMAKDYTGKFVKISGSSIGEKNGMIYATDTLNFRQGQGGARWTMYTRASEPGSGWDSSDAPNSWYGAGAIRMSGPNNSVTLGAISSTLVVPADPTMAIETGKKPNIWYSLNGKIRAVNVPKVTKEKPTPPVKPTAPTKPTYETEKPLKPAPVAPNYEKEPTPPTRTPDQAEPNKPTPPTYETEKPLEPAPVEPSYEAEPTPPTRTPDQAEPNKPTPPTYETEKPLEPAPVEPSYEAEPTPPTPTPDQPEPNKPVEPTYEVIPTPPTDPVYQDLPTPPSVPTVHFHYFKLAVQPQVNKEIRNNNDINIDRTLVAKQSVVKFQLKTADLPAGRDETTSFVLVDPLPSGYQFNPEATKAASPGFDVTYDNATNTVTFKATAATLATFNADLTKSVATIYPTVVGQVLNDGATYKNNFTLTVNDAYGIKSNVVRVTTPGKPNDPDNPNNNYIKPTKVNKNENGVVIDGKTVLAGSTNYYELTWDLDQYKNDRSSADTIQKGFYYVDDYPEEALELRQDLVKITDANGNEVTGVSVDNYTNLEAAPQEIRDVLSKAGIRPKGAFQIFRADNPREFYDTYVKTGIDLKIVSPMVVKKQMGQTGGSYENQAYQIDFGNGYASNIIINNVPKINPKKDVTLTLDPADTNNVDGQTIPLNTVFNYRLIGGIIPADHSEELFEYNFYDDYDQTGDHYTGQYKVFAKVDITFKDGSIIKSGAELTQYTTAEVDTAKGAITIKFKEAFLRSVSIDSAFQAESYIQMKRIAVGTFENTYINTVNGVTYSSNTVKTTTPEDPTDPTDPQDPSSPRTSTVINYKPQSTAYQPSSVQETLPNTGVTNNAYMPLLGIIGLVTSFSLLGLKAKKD

The target in experiment [6] is T4, FL^SspB (S. gordonii DL1 SspB, residues 39-1433) (Streptococcus gordonii DL1), P16952.
T4 chain: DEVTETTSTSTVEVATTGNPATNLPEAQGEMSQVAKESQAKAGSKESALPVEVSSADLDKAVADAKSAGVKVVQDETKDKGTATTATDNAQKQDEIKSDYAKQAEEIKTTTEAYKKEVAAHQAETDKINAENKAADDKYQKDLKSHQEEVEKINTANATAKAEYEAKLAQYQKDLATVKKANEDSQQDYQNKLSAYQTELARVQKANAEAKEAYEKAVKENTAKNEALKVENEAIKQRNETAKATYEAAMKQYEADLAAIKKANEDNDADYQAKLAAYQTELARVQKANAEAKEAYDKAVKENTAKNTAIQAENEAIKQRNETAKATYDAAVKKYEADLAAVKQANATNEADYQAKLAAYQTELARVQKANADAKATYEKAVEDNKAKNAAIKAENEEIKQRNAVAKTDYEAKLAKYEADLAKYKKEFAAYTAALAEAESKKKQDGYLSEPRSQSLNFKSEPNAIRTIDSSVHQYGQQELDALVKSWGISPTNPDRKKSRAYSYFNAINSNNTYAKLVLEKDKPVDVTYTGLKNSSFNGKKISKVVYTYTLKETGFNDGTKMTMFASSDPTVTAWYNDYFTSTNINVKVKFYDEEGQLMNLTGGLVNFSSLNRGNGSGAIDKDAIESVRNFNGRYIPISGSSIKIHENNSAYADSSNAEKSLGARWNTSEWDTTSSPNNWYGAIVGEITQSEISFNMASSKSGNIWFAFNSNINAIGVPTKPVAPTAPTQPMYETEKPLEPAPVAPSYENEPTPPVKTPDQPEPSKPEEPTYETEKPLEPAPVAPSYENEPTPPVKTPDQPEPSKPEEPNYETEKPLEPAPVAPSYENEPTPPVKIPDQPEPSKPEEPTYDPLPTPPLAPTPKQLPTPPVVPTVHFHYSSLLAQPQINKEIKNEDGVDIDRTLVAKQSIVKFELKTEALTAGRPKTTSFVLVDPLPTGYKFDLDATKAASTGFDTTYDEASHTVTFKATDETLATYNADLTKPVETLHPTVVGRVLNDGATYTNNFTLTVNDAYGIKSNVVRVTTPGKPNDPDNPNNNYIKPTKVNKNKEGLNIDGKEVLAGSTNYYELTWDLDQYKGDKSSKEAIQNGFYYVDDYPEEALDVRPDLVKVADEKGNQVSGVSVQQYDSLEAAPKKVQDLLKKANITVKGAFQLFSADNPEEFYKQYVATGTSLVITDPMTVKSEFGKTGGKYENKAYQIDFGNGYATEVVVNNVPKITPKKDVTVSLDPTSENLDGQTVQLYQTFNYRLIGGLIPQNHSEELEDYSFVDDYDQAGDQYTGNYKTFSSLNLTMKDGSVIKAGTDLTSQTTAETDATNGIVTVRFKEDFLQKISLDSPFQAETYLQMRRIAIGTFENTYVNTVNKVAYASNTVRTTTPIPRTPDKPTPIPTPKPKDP

Experiment [7] addresses A3VP1^SspB (S. gordonii DL1 SspB, residues 386-805) (Streptococcus gordonii DL1) (UniProt P16952). In words: SPR; 2 µM A3VP1^SspB incubated with 0.005 mM peptide, over immobilized iSRCR1.
For experiment [8], the target named is T4, FL^SspB (S. gordonii DL1 SspB, residues …). In words: SPR; 2 µM FL^SspB incubated with 0.005 mM peptide, over immobilized iSRCR1.
In experiment [9] the target is T3, FL^AgI/II (S. mutans UA159 Antigen …). In words: SPR; 2 µM FL^AgI/II incubated with 0.005 mM peptide, over immobilized iSRCR1.
Experiment [10] concerns the target T1, A3VP1^AgI/II (Streptococcus mutans …). In words: SPR; 2 µM A3VP1^AgI/II incubated with 0.005 mM peptide, over immobilized iSRCR1.
Experiment [11] concerns the target GbpC (S. mutans), glucan binding protein C (Streptococcus mutans). In words: SPR, peptide over immobilized GbpC.

With QGRVEVLYRGSWGTVCK-{FAM} [SRCRP2 peptide with fluorescein amidite (FAM) at the carboxyl end (…-[FAM])], the % change of adherence to iSRCR123 in experiment [1] worked out at 3%; in experiment [2] it was 5%; in [4], 7%. Moreover, the results for the % change of adherence to iSRCR1 in [2], in [4] and in [7] were 4%, 2.3% and 3%, respectively. In addition, the % improvement of adherence to iSRCR123 in [3] was determined as 16%; in experiment [5], 8%; in [6], 91%. Moreover, the % improvement of adherence to iSRCR1 in [8] was determined as 97%; in [9] it was 8%; in experiment [10] it was 13%.
As for ETNDANVVARQL (modifications not checked) [SRCR peptide …], in [11], the Ka is 2.57e+08 M⁻¹, the Kd was 3.89 nM, the koff turned out to be 0.0573 s⁻¹ and the kon is 1.47e+07 M⁻¹ s⁻¹.
